Experimental findings from patent US20140120095A1 (Boehringer Ingelheim, published 2014) are described below.

Substitutions are numbered along the chain they refer to.

Test [1] deals with T1, human DLL4 overexpressed on cells (human, UniProt Q9NR61 27-685).
T1 construct: full length human DLL4 on CHO or HEK293 cells; also called CHO-hDLL4; CHO-hDII4
Briefly: competitive FMAT, hNotch1-Fc on CHO-hDLL4.

The target of test [2] is T2, recombinant human DLL4 (human, UniProt Q9NR61 25-522).
T2 construct: also called rhDLL4; hDLL4
Briefly: competition AlphaScreen, biot-hDLL4/hNotch1-Fc. The protocol: In brief, 1 nM biotinylated human DII4 is captured on streptavidin-coated donor beads (20 μg/mL), while 0.4 nM of the receptor human Notch1 (as a Fc fusion protein) is captured on anti-human Fc VHH-coated acceptor beads (20 μg/mL). Both loaded beads are incubated together with a dilution range of the competing VHH (FIG. 4 A-E).

For test [3], the target named is T2, recombinant human DLL4. Put plainly: hDLL4 ELISA screen, periplasmic extract. Background: An ELISA detects its analyte on a solid surface through an enzyme-linked reagent.
The target in test [4] is T3, recombinant mouse DLL4 (mouse, UniProt Q9JI71 27-532).
T3 construct: extracellular domain; also called rmDLL4; mDLL4
T3 sequence (Q9JI71 27-532): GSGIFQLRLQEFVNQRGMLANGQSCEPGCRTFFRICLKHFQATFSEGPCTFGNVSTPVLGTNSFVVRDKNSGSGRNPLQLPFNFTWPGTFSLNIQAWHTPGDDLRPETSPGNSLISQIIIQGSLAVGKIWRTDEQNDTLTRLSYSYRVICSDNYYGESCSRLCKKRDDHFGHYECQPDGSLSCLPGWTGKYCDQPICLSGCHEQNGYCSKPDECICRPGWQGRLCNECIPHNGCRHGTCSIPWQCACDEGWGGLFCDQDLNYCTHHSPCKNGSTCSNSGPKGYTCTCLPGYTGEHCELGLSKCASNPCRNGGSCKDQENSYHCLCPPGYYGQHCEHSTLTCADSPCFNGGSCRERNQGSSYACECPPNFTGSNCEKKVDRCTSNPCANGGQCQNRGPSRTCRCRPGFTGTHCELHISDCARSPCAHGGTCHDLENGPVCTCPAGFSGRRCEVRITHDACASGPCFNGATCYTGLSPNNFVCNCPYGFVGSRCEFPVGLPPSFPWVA
Put plainly: binding ELISA on coated recombinant mouse DLL4, OD 405 nm. The protocol:
(§1) In order to determine cross-reactivity to mouse DII4 a binding ELISA is performed. […] Wells are blocked with a casein solution (1% in PBS). VHHs are applied as dilution series and binding is detected using a mouse anti-myc (Roche) and an anti-mouse-AP conjugate (Sigma, St Louis, Mo., USA) (FIG. 7 A-H). As reference, binding to human DII4 is measured.

Test [5] deals with T4, human Jagged-1 (human, UniProt P78504 34-1067, limits assumed).
T4 construct: also called hJagged-1; hJAG1
Put plainly: binding ELISA on coated recombinant human Jagged-1, OD 405 nm. The protocol: (§2) Absence of binding to homologous ligands human DLL1 and human Jagged-1 is assessed via solid phase binding assay (ELISA). In brief, human DLL1 (Alexis, San Diego, Calif., USA) and human Jagged-1 (Alexis, San Diego, Calif., USA) are coated overnight at 4° C. at 1 μg/mL in a 96-well MaxiSorp plate (Nunc, Wiesbaden, Germany). Wells are blocked with a casein solution (1% in PBS). VHHs are applied as dilution series and binding is detected using a mouse anti-myc (Roche) and an anti-mouse-AP conjugate (Sigma, St. Louis, Mo., USA).

Test [6] has as its target T2, recombinant human DLL4. Put plainly: binding ELISA, coated rhDLL4. The protocol:
as §1

In test [7] the target is T5, human DLL1 (human, UniProt O00548 18-545, limits assumed).
T5 construct: also called hDLL1
T5 sequence (looked up): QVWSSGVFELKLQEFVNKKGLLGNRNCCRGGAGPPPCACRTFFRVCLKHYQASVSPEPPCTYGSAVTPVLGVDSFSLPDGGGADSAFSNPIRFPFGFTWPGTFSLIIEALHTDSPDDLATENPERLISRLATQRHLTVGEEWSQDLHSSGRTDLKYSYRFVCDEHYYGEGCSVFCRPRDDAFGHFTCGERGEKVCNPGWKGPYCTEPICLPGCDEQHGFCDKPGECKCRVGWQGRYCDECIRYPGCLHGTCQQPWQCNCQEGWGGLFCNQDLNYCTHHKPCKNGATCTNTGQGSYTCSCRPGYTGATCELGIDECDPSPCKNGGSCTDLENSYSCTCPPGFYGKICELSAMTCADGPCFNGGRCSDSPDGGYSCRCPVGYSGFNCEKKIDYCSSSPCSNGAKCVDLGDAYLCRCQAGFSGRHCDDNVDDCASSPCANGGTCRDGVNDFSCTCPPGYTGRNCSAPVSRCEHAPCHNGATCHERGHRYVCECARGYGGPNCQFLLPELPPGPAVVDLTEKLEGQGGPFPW
Put plainly: binding ELISA on coated recombinant human DLL1, OD 405 nm. The method, then: as §2

Test [8] has as its target T6, human DLL4, full length, overexpressed on cells (human, UniProt Q9NR61 27-685).
T6 construct: CHO cells in FMAT, HEK293 cells in the reporter assay; also called hDLL4; CHO-hDLL4
Put plainly: FMAT, hNotch1-Fc on CHO-hDLL4, -HSA.

For test [9], the target named is T6, human DLL4, full length, overexpressed …. Briefly: cell-based or functional assay.
Test [10] shares this target. Put plainly: FMAT, hNotch1-Fc on CHO-hDLL4, +25 uM HSA.
For test [11], the target named is T7, mouse DLL4, full length, overexpressed on CHO cells (mouse, UniProt Q9JI71 27-686).
T7 construct: whole, on cells; also called mDLL4; CHO-mDLL4
Put plainly: FMAT, hNotch1-Fc on CHO-mDLL4, +25 uM HSA.
Target sequence in this assay (Q9JI71 27-686): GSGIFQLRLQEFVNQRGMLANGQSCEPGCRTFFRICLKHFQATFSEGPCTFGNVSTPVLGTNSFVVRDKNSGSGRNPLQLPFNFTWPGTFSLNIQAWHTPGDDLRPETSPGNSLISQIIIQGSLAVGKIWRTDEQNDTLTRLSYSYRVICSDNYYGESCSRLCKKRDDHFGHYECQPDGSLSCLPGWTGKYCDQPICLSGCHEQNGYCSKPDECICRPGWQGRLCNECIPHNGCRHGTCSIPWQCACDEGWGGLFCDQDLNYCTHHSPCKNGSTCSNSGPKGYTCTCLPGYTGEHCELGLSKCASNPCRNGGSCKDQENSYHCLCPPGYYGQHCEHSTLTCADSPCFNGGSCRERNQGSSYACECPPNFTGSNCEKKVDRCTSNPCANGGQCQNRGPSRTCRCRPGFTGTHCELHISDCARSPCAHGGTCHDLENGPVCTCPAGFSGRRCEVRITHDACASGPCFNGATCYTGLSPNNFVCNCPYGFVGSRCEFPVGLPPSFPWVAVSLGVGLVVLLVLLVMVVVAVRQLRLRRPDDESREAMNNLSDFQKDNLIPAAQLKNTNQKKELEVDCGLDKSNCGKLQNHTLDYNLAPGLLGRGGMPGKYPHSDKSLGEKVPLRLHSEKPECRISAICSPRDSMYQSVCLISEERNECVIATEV

The target of test [12] is T7, mouse DLL4, full length, overexpressed …. Put plainly: FMAT, hNotch1-Fc on CHO-mDLL4, -HSA.
Target sequence in this assay (Q9JI71 27-686): as above
Test [13] has the same target. Put plainly: FMAT, hNotch1-Fc on CHO-mDLL4, -HSA. The source holds these as a separate data set.
Test [14] addresses T8, recombinant human VEGF165 (human, UniProt P15692-4 27-191, biotinylated in the competition assays).
T8 construct: Bought protein; also called hVEGF165; rhVEGF165
Put plainly: AlphaScreen, hVEGF165/hVEGFR1-Fc competition, -HSA.

The target in test [15] is T6, human DLL4, full length, overexpressed …. Briefly: FMAT, hNotch1-Fc on CHO-hDLL4, -HSA. This is another data set of the same source.
Test [16] has as its target T8, recombinant human VEGF165. Briefly: AlphaScreen, hVEGF165/hVEGFR2-Fc competition, -HSA.
Test [17] deals with T2, recombinant human DLL4. Briefly: competition ELISA, biot-hDLL4 to coated hNotch1-Fc. The source says:
Residual binding of biotinylated human DII4 is detected using horseradish peroxidase (HRP) conjugated extravidin (Sigma, St. Louis, Mo., USA) (FIG. 3 A-C). Human DII4 is biotinylated as described above.

T8 sequence (P15692 other isoform, or with tags, fused parts or gaps): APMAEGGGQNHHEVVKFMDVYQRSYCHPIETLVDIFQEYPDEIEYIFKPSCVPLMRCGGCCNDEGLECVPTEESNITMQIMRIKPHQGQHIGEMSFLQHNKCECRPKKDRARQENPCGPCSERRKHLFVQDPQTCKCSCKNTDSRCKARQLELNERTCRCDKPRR

B1: DLLBII08A09 (VHH)
VHH: EVQLVESGGGLVQPGGSLRLSCAASGFTLDYYNIGWFRQAPGKEREWVSCINSSDGSTYYADSVKGRFTISRDNAKNTVYLQMNSLKPEDTAVYYCAAPFAYYSNLCGVNGYDYWGQGTQVTVSS
notes: also called DLLBII8A09
Turning to B1, the IC50 in [1] stood at 5.5 nM; in [2] it was 0.4 nM. The “% inh” value in test [3] was 96%. In addition, the binding result in test [4], in test [5] and in [7] was “no binding (tested: 2.5e-7 M)” throughout. In addition, the EC50 in test [6] worked out at 0.9 nM.

B2: DLLBII129B05 (VHH, not shown: small tags and cut ends)
VHH: EVQLVESGGGLVQAGGSLRLSCAASGRTFSSYAMAWYRQAPGKEREYVAAIRWSGGTAYYADSVQGRFTISRDNAKNTVYLQMNSLKPEDTAVYYCANRAPDTRLAPYEYDHWGQGTQVTVSS
Consider B2, for which the “% inh” value came to 90% in test [8], 90% in test [10], 100% in [11] and 100% in test [12]. Besides, the IC50 stood at 3.2 nM in [8], 4.3 nM in [10], 3.7 nM in test [11] and 3 nM in test [12]. The “IC50, DLL4 mediated reporter assay, +HSA” value in test [9] came to 88 nM.

B3: A1 (bispecific antibody)
chain: VQLVESGGGLVQPGGSLRLSCAASGRTFSSYSMGWFRQAPGKEREFVVAISKGGYKYDAVSLEGRFTISRDNAKNTVYLQINSLRPEDTAVYYCASSRAYGSSRLRLADTYEYWGQGTLVTVSSGGGGSGGGGSGGGGCGGGGSGGGGSGGGGSGGGGSEVQLVESGGGLVQPGGSLRLSCAASGRTFSSYAMAWYRQAPGKEREYVAAIRWSGGTAYYADSVKGRFTISRDNAKNTVYLQMNSLRPEDTAVYYCANRAPDTRLAPYEYDHWGQGTLVTVSS
modifications: PEGylated at the Cys at position 15 of the 35 Gly-Ser linker
notes: VEGFBII038 (N-terminal E missing) - 35GS(Cys15) - DLLBII018
B3: the “% inh” value in test [13] stood at 100%; in test [14], 80%; in test [15], 102%; in test [16], 100%. For the same molecule, the IC50 amounted to 3.4 nM in test [13], 0.1 nM in [14], 6.7 nM in test [15] and 0.07 nM in test [16].

B4: DLLBII05B11 (VHH)
VHH: EVQLVESGGGLVQPGGSLRLSCAISGFTLDLHVIGWLRQAPGKEREWVSCISSSDGSTYYADSVKGRFTISRDNAKNTVYLQMNSLKPEDTAVYYCAAPWDSWYCGIGNDYDYWGQGTQVTVSS
notes: also called DLLBII5B11
For B4, in test [2], the IC50 was determined as 0.7 nM. Further, the “% inh” value in [3] worked out at 98%. In addition, the binding result in test [4], in [5] and in test [7] was “no binding (tested: 2.5e-7 M)” each time. Also, the EC50 in [6] is 1.8 nM.

B5: DLLBII6B11 (VHH)
VHH: EVQLVESEGGLVQAGGSLRLSCAASGSTFSSYAMGWYRQAPGKQRELVAVISNGGITNYPNSVKGRFTISRDNAKNTVYLQMNSLKPEDTAVYYCFYSGSYYYPTDVHEYDYWGQGTQVTVSS
notes: also called DLLBII06B1
Take B5: the IC50 was determined as 8.9 nM in [1], 0.3 nM in [2] and 1.5 nM in test [17]. For the same molecule, the “% inh” value in [3] was determined as 98%. The binding result in test [4], in test [5] and in test [7] was “no binding (tested: 2.5e-7 M)” throughout. For the same molecule, in test [6], the EC50 turned out to be 1.4 nM.

B6: DLLBII07A02 (VHH)
VHH: B5 VHH with E8G, S30N, L47W, V50A, I51F, N53T, I56S, P60A, N61D, H108F
As for B6, in test [2], the concentration for half-maximal inhibition (IC50) amounted to 0.4 nM. Also, the binding result in test [4], in test [5] and in [7] was “no binding (tested: 2.5e-7 M)” in each case. For the same molecule, the EC50 in test [6] worked out at 1.4 nM.

B7: A3 (bispecific antibody)
chain: VQLVESGGGLVQPGGSLRLSCAASGRTFSSYSMGWFRQAPGKEREFVVAISKGGYKYDAVSLEGRFTISRDNAKNTVYLQINSLRPEDTAVYYCASSRAYGSSRLRLADTYEYWGQGTLVTVSSGGGGSGGGGSGGGGCGGGGSGGGGSGGGGSGGGGSEVQLVESGGGLVQPGGSLRLSCAASGIRFISMAWYRQAPGKQRELVARISSGGTTAYADSVKGRFTISRDNSKNTVYLQMNSLRAEDTAVYYCNTFSSRPNPWGQGTLVTVSSGGGGSGGGGSGGGGSGGGGSGGGGSGGGGSGGGGSEVQLVESGGGLVQPGGSLRLSCAASGRTFSSYAMAWYRQAPGKEREYVAAIRWSGGTAYYADSVKGRFTISRDNAKNTVYLQMNSLRPEDTAVYYCANRAPDTRLAPYEYDHWGQGTLVTVSS
modifications: PEGylated at the Cys at position 15 of the 35 Gly-Ser linker
notes: VEGFBII038 - 35GS(Cys15) - VEGFBII032 - 35GS - DLLBII018
In the case of B7, the “% inh” value amounted to 95% in [13], 97% in [14], 97% in test [15] and 100% in test [16]. For the same molecule, the IC50 in test [13] worked out at 7.9 nM; in test [14], 0.02 nM; in test [15], 16.1 nM; in [16] it was 0.01 nM.

B8: DLLBII07B05 (VHH)
VHH: EVQLVESGGGLVQAGGSLRLSCAASGFALDYYAVGWFRQAPGKEREGVSCISSRGGSTFYADSVKGRFTTSRNNAKNTVYLQMNSLKPEDTAVYYCAAHPLQNCCGGSAYASPEAVYEYWGQGTQVTVSS
notes: also called DLLBII7B05
As for B8, the IC50 in test [2] worked out at 1.1 nM. Moreover, the “% inh” value in test [3] stood at 84%. Moreover, the binding result in test [4], in [5] and in test [7] was “no binding (tested: 2.5e-7 M)” in each case. Further, in test [6], the half-maximal effective concentration (EC50) worked out at 7.2 nM.

One may read the IC50 as the concentration needed to halve the response being measured. The term EC50 denotes the concentration needed to bring the measured effect to its halfway point.
